Source: patent publication US20140011732A1 (Novo Nordisk, published 2014)
Starred links: 1 amine or outer side, 2 acyl side, 3 side chain; linkers in the order of their positions; H or OH if unused. Non-standard residues stand in square brackets, D forms with d. Groups on a side chain read outwards from the residue. *: point of attachment. C20 diacid = O=C(O)CCCCCCCCCCCCCCCCCCC(=O)*; γGlu = O=C(O)[C@H](CCC(=O)[*:2])N[*:1]; Desaminohistidyl = O=C(CCc1c[nH]cn1)*; AEEA = NCCOCCOCC(=O)O; Inp = O=C(O)C1CCNCC1

Target: T1, human serum albumin (HSA) (human, UniProt P02768 25-609, biotinylated)
T1 construct: also called biotinylated HSA
Test: competition SPA on biotinylated HSA, 125I acylated GLP-1 tracer;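 further: streptavidin SPA beads carrying biotinylated HSA, competition incubated 20 h at room temperature, plates then read on a TopCount counter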
Protocol: Streptavidin-SPA beads (GE Healthcare RPNQ0009) were incubated with biotinylated HSA for 5 hours. The beads were washed with buffer to remove unbound HSA. […] After 20 hours of gentle rocking at room temperature the plates were centrifuged and counted on a TopCounter.

B1: [DesaminoHis7,Glu22,Arg26,Arg34]GLP-1-(7-37)Lys[2-(2-[2-(2-[2-(2-((S)-4-[1-[19-Carboxynonadecanoyl]piperidine-4-carbonylamino]-4-carboxybutyrylamino)ethoxy)etho … (peptide)
peptide: [Desaminohistidyl]AEGTFTSDVSSYLEEQAAREFIAWLVRGRGK([AEEA-AEEA-γGlu-Inp-C20 diacid])-NH2
SMILES: CC[C@H](C)[C@H](NC(=O)[C@H](Cc1ccccc1)NC(=O)[C@H](CCC(=O)O)NC(=O)[C@H](CCCNC(=N)N)NC(=O)[C@H](C)NC(=O)[C@H](C)NC(=O)[C@H](CCC(N)=O)NC(=O)[C@H](CCC(=O)O)NC(=O)[C@H](CCC(=O)O)NC(=O)[C@H](CC(C)C)NC(=O)[C@H](Cc1ccc(O)cc1)NC(=O)[C@H](CO)NC(=O)[C@H](CO)NC(=O)[C@@H](NC(=O)[C@H](CC(=O)O)NC(=O)[C@H](CO)NC(=O)[C@@H](NC(=O)[C@H](Cc1ccccc1)NC(=O)[C@@H](NC(=O)CNC(=O)[C@H](CCC(=O)O)NC(=O)[C@H](C)NC(=O)CCc1c[nH]cn1)[C@@H](C)O)[C@@H](C)O)C(C)C)C(=O)N[C@@H](C)C(=O)N[C@@H](Cc1c[nH]c2ccccc12)C(=O)N[C@@H](CC(C)C)C(=O)N[C@H](C(=O)N[C@@H](CCCNC(=N)N)C(=O)NCC(=O)N[C@@H](CCCNC(=N)N)C(=O)NCC(=O)N[C@@H](CCCCNC(=O)COCCOCCNC(=O)COCCOCCNC(=O)CC[C@H](NC(=O)C1CCN(C(=O)CCCCCCCCCCCCCCCCCCC(=O)O)CC1)C(=O)O)C(N)=O)C(C)C
B1 was tested. Which EC50 did it give?
Its EC50 is 300 to 800 nM.
